Source: the RNAGym collection of RNA variant scans (doi:10.1101/gr.219683.116)

B1: mRNA-splicing (parent)
chain: AGUUGCUGCUGGGAGCUCCAGCACAGUGAAAUGGACAGAAGGGCAGAGCAA

Variants of: B1
Assay: exon inclusion enrichment index; higher = more inclusion; WT1 exon 5 minigene, HEK293

Row | Variant | exon inclusion enrichment index
1 | C6A U7C C9A U10C C36U A37U | 1.97
2 | C6A U7C C9A U10C G13C A14G | 2.83
3 | C6A U7C C9A U10C G13C A14U | 2.57
4 | C6A U7C C9A U10C G13C A14C | 2.43
5 | C6A U7C C9A U10C G38U A39C | 2.79
6 | C6A U7C C9A U10C G38U A39G | 1.89
7 | C6A U7C C9A U10C G38U A39U | 0.32
8 | C6A U7C C9A U10C C36A | 2.48
9 | C6A U7C C9A U10C C36G | 2.75
10 | C6A U7C C9A U10C C36U | 1.34
11 | C6A U7C C9A U10C G11U | 3.07
12 | C6A U7C C9A U10C G11C | 3.61
13 | C6A U7C C9A U10C G11A | 1.84
14 | C6A U7C C9A U10C G15U | 3.57
15 | C6A U7C C9A U10C G15A | 3.34
16 | C6A U7C C9A U10C G15C | 4
17 | C6A U7C C9A U10C G33A G34U | 0.964
18 | C6A U7C C9A U10C G33A G34A | 0.865
19 | C6A U7C C9A U10C G33A G34C | 1.06
20 | C6A U7C C9A U10C G21U C22A | 2.02
21 | C6A U7C C9A U10C G21U C22U | 1.78
22 | C6A U7C C9A U10C G21U C22G | 3.54
23 | C6A U7G C9A U10C | 0.53
24 | C6A U7G C9A U10A | 0.108

Row | Variant | exon inclusion enrichment index
25 | C6A U7C C9A U10C G43C C44G | 4.77
26 | C6A U7C C9A U10C G43C C44A | 3.8
27 | C6A U7C C9A U10C G43C C44U | 2.49
28 | C6A U7C C9A U10C G38A A39G | 2.68
29 | C6A U7C C9A U10C G38A A39C | 2.55
30 | C6A U7C C9A U10C G38A A39U | 0.332
31 | C6A U7C C9A U10C G12C G13A | 2.55
32 | C6A U7C C9A U10C G12C G13U | 0.77
33 | C6A U7C C9A U10C G12C G13C | 1.72
34 | C6A U7C C9A U10C C44G A45G | 1.29
35 | C6A U7C C9A U10C C44G A45U | 3.12
36 | C6A U7C C9A U10C C44G A45C | 4.25
37 | C6A U7C C9A U10C G26U U27C | 4
38 | C6A U7C C9A U10C G26U U27G | 4.12
39 | C6A U7C C9A U10C G26U U27A | 2.38
40 | C6A U7C C9A U10C C24U A25G | 3.92
41 | C6A U7C C9A U10C C24U A25C | 4.21
42 | C6A U7C C9A U10C C24U A25U | 2.88
43 | C6A U7C C9A U10C G43U C44U | 1.21
44 | C6A U7C C9A U10C G43U C44G | 0.567
45 | C6A U7C C9A U10C G43U C44A | 0.0402
46 | C6G U7G C9A U10A | 0.0539
47 | C6G U7G C9A U10C | 0.246
48 | C6A U7C C9A U10C G33U G34U | 1.05

Row | Variant | exon inclusion enrichment index
49 | C6A U7C C9A U10C G33U G34A | 0.907
50 | C6A U7C C9A U10C G33U G34C | 1.4
51 | C6A U7C C9A U10C U27C | 5.2
52 | C6A U7C C9A U10C U27G | 2.01
53 | C6A U7C C9A U10C U27A | 3.6
54 | C6A U7C G8A C9G U10C | 1.39
55 | C6A U7C C9A U10C C36G A37C | 1.56
56 | C6A U7C C9A U10C C36G A37U | 1.89
57 | C6A U7C C9A U10C C36G A37G | 1.36
58 | C6A U7C C9A U10C G13A A14U | 3.22
59 | C6A U7C C9A U10C G13A A14C | 3.39
60 | C6A U7C C9A U10C G13A A14G | 3
61 | C6A U7C C9A U10C C19U A20U | 2.13
62 | C6A U7C C9A U10C C19U A20G | 1.79
63 | C6A U7C C9A U10C C19U A20C | 3.08
64 | C6A U7C C9A U10C G46C A47G | 3.46
65 | C6A U7C C9A U10C G46C A47C | 2.51
66 | C6A U7C C9A U10C G46C A47U | 2.64
67 | C6A U7C C9A U10C U32A G33U | 3.1
68 | C6A U7C C9A U10C U32A G33C | 3.5
69 | C6A U7C C9A U10C U32A G33A | 2.07
70 | C6G U7C C9A U10C | 3.21
71 | C6G U7C C9A U10A | 0.988
72 | C6A U7C G8U C9U U10C | 2.41

Row | Variant | exon inclusion enrichment index
73 | C6A U7G C9A | 0.123
74 | C6A U7C C9A U10C G15C C16A | 2.79
75 | C6A U7C C9A U10C G15C C16G | 3.44
76 | C6A U7C C9A U10C G15C C16U | 3.32
77 | C6A U7C C9A U10C G21C C22A | 3.4
78 | C6A U7C C9A U10C G21C C22U | 3.3
79 | C6A U7C C9A U10C G21C C22G | 3.98
80 | C6A U7C C9A U10C C22U | 2.84
81 | C6A U7C C9A U10C C22A | 3.18
82 | C6A U7C C9A U10C C22G | 3.9
83 | C6A U7C C9A U10C G12A G13A | 2.17
84 | C6A U7C C9A U10C G12A G13U | 1.08
85 | C6A U7C C9A U10C G12A G13C | 2.54
86 | C6A U7G | 0.00565
87 | C6A U7C C9G | 1.05
88 | C6A U7C C9U | 1.42
89 | C6A U7C C9U U10G | 0.298
90 | C6A U7C C9U U10A | 0.0495
91 | C6A U7C C9U U10C | 2.52
92 | C6A U7C C9A U10C G21A C22G | 3.04
93 | C6A U7C C9A U10C G21A C22U | 2.22
94 | C6A U7C C9A U10C G21A C22A | 2.06
95 | C6U U7C U10C | 3.52
96 | C6A U7C C9A U10C G13U A14U | 2.48

Row | Variant | exon inclusion enrichment index
97 | C6A U7C C9A U10C G13U A14G | 2.11
98 | C6A U7C C9A U10C G13U A14C | 2.46
99 | C6A U7C G8A U10A | 0.127
100 | C6A U7C G8A U10C | 2.3
101 | C6A U7C G8U U10C | 2.98
102 | C6A U7C C9A U10C G13U | 1.08
103 | C6A U7C C9A U10C G13C | 2.83
104 | C6A U7C C9A U10C G13A | 3.32
105 | C6A U7C G8A C9A U10C | 2.62
106 | C6A U7C G8A C9A U10A | 0.265
107 | C6A U7C C9A U10C G42C G43U | 3.6
108 | C6A U7C C9A U10C G42C G43C | 3.4
109 | C6A U7C C9A U10C G42C G43A | 3.52
110 | C6A U7C C9G U10A | 1.39
111 | C6A U7C C9G U10G | 0.132
112 | C6A U7C C9G U10C | 2.55
113 | C6A U7C C9A U10C G43A C44G | 5.09
114 | C6A U7C C9A U10C G43A C44A | 4.49
115 | C6A U7C C9A U10C G43A C44U | 3.22
116 | C6A U7G G8C C9A U10A | 0.124
117 | C6A U7G G8C C9A U10C | 0.907
118 | C6A U7C C9A U10C G28A A29G | 1.98
119 | C6A U7C C9A U10C G28A A29C | 2.55
120 | C6A U7C C9A U10C G28A A29U | 1.29

Row | Variant | exon inclusion enrichment index
121 | C6A U7C C9A U10C G34C A35G | 2.67
122 | C6A U7C C9A U10C G34C A35C | 0.445
123 | C6A U7C C9A U10C G34C A35U | 0.98
124 | C6A U7C C9A U10C G33C G34U | 2.34
125 | C6A U7C C9A U10C G33C G34C | 2.01
126 | C6A U7C C9A U10C G33C G34A | 2.31
127 | C6A U7C C9A U10C G41A G42A | 2.59
128 | C6A U7C C9A U10C G41A G42C | 3.64
129 | C6A U7C C9A U10C G41A G42U | 2.71
130 | C6A U7C C9A U10G G11U | 2.09
131 | C6A U7C C9A U10G G11C | 2.72
132 | C6A U7C C9A U10G G11A | 2.06
133 | C6A U7C C9A U10C C24G A25G | 2.34
134 | C6A U7C C9A U10C C24G A25C | 4.59
135 | C6A U7C C9A U10C C24G A25U | 3.51
136 | C6A U7C C9A U10C G15A C16G | 2.11
137 | C6A U7C C9A U10C G15A C16A | 2.34
138 | C6A U7C C9A U10C G15A C16U | 2.88
139 | C6A U7C C9A U10C U27G G28C | 2.4
140 | C6A U7C C9A U10C U27G G28A | 3.19
141 | C6A U7C C9A U10C U27G G28U | 0.0137
142 | C6G C9A U10A | 0.229
143 | C6G C9A U10C | 1.01
144 | C6A U7C C9A U10C G41A | 2.41

Row | Variant | exon inclusion enrichment index
145 | C6A U7C C9A U10C G41C | 3.93
146 | C6A U7C C9A U10C G41U | 3.1
147 | C6A U7C C9A U10C G34U A35U | 1.33
148 | C6A U7C C9A U10C G34U A35G | 1.29
149 | C6A U7C C9A U10C G34U A35C | 1.5
150 | C6A U7C C9A U10C G46A | 2.98
151 | C6A U7C C9A U10C G46C | 2.33
152 | C6A U7C C9A U10C G46U | 2.22
153 | C6A U7C C9A U10C U32C G33U | 2.94
154 | C6A U7C C9A U10C U32C G33A | 2.3
155 | C6A U7C C9A U10C U32C G33C | 4
156 | C6A U7C C9A U10C U27A G28A | 2.98
157 | C6A U7C C9A U10C U27A G28C | 3.18
158 | C6A U7C C9A U10C U27A G28U | 2.04
159 | C6U | 0.0511
160 | C6G | 0.0263
161 | C6A U7C C9A U10C G48A | 3.5
162 | C6A U7C C9A U10C G48U | 3.83
163 | C6A U7C C9A U10C G48C | 2.99
164 | C6A U7C G8C U10C | 2.08
165 | C6G U7G | 0.0143
166 | C6G U7A | 0.00764
167 | C6G U7C | 0.331
